These results are taken from patent US20140178293A1, “METHODS FOR IMAGING BONE PRECURSOR CELLS USING DUAL-LABELED IMAGING AGENTS TO DETECT MMP-9 POSITIVE CELLS” (BAYLOR COLLEGE OF MEDICINE, priority 2011, published 2014).

One series relates to MMP-2/9. As to conditions: Koivunen et al., 1999; cited from earlier work.
The conditions of series [1]: in vivo; Kuhnast et al., 2004; Sprague et al., 2006; cited from earlier work.
The format of series [2] is physicochemical. As to the method:
The lipophilicity of ^68Ga-M2 was assessed by determination of the water-octanol partition coefficient. 1-Octanol (1 mL) was added to a solution of approximately 25 μCi of ^68Ga-M2 in water (1 mL) and the layers were vigorously mixed for 5 min at room temperature. The tubes were centrifuged at 14,000 rpm for 2-3 min. Three samples of 100 μL of each layer were taken in pre-weighed vials, re-weighed, and counted in a […] (Wizard-2, Perkin Elmer). The partition coefficient was determined by calculating the ratio of counts per minute (cpm) in weight (g) of octanol/cpm in weight (g) of water and expressed as log P. At least three independent experiments were performed in triplicate to give the log P as the mean value±standard deviation (SD).

Series [3] in a line: radiochemical stability of ^68Ga-M2 in PBS or DTPA challenge (radio-HPLC). As to conditions: room temperature, 3 h incubation. Type of series: physicochemical. The method, then:
(§1) The chemical, radiochemical and optical stability of radioactive and non-radioactive M2 were examined using a series of in vitro stability studies. M2 was incubated in PBS and water at room temperature and 4° C. for 14 days, followed by HPLC analysis of peptide and fluorescent stability. To assess radiochemical stability, ^68Ga-M2 was added to a solution of PBS or DTPA (500-fold excess), kept at room temperature for 1, 2 and 3 h, and analyzed by radio-HPLC. To evaluate serum stability, 150 μl of ^68Ga-M2 was added to 50% mouse serum and incubated at 37° C. An 80 μl aliquot was taken at each of the above-mentioned time points and added to 160 μl ice-cold acetonitrile. The samples were centrifuged at 14,000 rpm for 5 min and the supernatant was collected, filtered and analyzed by radio-HPLC.

The next series is described as follows: in vitro. The format is in vitro ADME. As to conditions: mouse, serum. The method, then:
as §1

The nature of series [4]: characterization of fluorescent properties. Type of series: physicochemical. The method, then:
Fluorescence intensity of the fluorophores was determined using the Fluorolog Tau-3 Spectrofluorometer (Horiba Jobin Yvon, Edison, N.J.) with excitation from a xenon arc lamp and absorbance was recorded using the DU-800 Spectrophotometer (Beckman Coulter, Brea Calif.). Fluorescence excitation and emission spectra were obtained at wavelengths of 785 and 830 nm respectively, with an integration time of 0.3 seconds for 1 μM solutions of IRDye 800CW, M2 and ^68Ga-M2 (n=4). Fluorescence measurements for IRDye 800CW and M2 were performed in aqueous solution under ambient conditions, whereas ^68Ga-M2 was prepared as previously described in NaOAc (pH 4) to provide an accurate representation of the ^68Ga-labeling scheme. Extinction coefficients were determined from the slope of absorbance at 785 nm as a function of the concentration of serial dilutions of each agent. Fluorescence quantum yield was determined by the comparative method of Williams et al. (Williams et al., 1983) using the quantum yield of ICGO (Φ=0.016) at 785/830 nm as a standard.

In series [5] the target is T1, MMP-9 (Mus musculus, UniProt P41245). The series is described as follows: NIRF imaging of ^68Ga-M2 in murine model of BMP-2 induced HO. Type of series: in vivo. The arrangement: injected intramuscularly into each hind limb quadriceps muscle of nonobese diabetic/severely compromised immunodeficient (NOD/SCID) mice; from tissue; host or cells: hind limb muscle of living NOD/SCID mice injected with AdBMP2- or Adempty-transduced human fibroblasts. As to conditions: day 4 after implantation, 18 hr after i.v. administration. The method, then:
(§2) A murine model of BMP-2 induced HO was used as previously described (Rodenberg et al., 2010). […] Control transduced cells were injected into the contralateral limb.
Based on the findings from the ex vivo analysis, mice were imaged on day 4 post-implantation with NIRF imaging to assess localization and in vivo fluorescence of M2 following ^68Ga-labeling. […] NIR fluorescence images were acquired 18 hr after intravenous administration of ^68Ga-M2 using a custom-built fluorescence imaging systems previously described Houston et al., 2005). Briefly, a field of view was illuminated with 785 nm of light from a laser diode, outfitted with a convex lens and diffuser to create a uniform excitation field. The fluorescence was collected through holographic and interference filters placed before a Nikon camera lens. The images were finally captured by an electron-multiplying charge-coupled device camera (PhotonMax 512; Princeton Instruments, Princeton, N.J.) with 200 to 400 milliseconds of integration time. For acquisition of white-light images, the optical filters were removed, and a low-power lamp illuminated the subject. Image acquisition was accomplished by V++ software (Auckland, New Zealand).

Series [6] deals with T1, MMP-9. On the set-up: injected intramuscularly into each hind limb quadriceps muscle of nonobese diabetic/severely compromised immunodeficient (NOD/SCID) mice; from tissue; host or cells: hind limb muscle of living NOD/SCID mice injected with AdBMP2- or Adempty-transduced human fibroblasts. The settings on record: in vivo, iv. As to the method:
as §2
The anesthetized mice were injected intravenously with ^68Ga-M2 (200 μCi, 6 nmol) and μPET/CT images were acquired 1 h post-injection. To visualize the formation of ectopic bone, CT imaging was performed on days 4 and 11 post-implantation

The mark [7] stands for this setting: 1 μM solutions, IRDye 800CW and M2 aqueous, ^68Ga-M2 in NaOAc pH 4.

No end group written: not given here.

T1 sequence (P41245 108-730): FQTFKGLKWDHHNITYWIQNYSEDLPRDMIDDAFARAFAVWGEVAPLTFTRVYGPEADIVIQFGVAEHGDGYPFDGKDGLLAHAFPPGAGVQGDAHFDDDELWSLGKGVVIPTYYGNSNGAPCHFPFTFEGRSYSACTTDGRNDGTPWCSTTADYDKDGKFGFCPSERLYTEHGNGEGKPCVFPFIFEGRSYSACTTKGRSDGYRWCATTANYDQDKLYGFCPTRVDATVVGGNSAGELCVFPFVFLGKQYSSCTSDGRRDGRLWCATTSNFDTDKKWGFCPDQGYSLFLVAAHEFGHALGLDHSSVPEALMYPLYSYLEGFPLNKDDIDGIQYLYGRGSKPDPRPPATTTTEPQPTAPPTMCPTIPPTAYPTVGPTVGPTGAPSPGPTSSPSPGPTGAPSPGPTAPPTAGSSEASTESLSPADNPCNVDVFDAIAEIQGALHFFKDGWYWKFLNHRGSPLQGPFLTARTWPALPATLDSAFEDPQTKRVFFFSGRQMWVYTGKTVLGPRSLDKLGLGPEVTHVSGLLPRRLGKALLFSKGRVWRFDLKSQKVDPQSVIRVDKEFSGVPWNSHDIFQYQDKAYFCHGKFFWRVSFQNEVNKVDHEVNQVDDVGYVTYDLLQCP

“c(CTTHWGFTLC) (also: cyclic, c(...), ring type and places not given here)”: the “inhibitory activity against MMP-2/9” value in the series with MMP-2/9 was “potent inhibitory activity”. Further, the “susceptibility to non-specific degradation” value in series [1] is reported as “highly susceptible to non-specific degradation”.
With `CC(C)C[C@@H]1NC(=O)[C@H]([C@@H](C)O)NC(=O)[C@H](Cc2ccccc2)NC(=O)CNC(=O)[C@H](Cc2c[nH]c3ccccc23)NC(=O)[C@H](Cc2c[nH]cn2)NC(=O)[C@H](C)NC(=O)[C@@H](NC(=O)[C@H](CCCCNC(=O)CCCCC[N+]2=C(C=CC3=C(Oc4ccc(S(=O)(=O)O)cc4)C(=CC=C4N(CCCCS(=O)(=O)O)c5ccc(S(=O)(=O)O)cc5C4(C)C)CCC3)C(C)(C)c3cc(S(=O)(=O)[O-])ccc32)NC(=O)CN2CCN(CC(=O)O)CCN(CC(=O)O)CCN(CC(=O)O)CC2)CCCCNC(=O)C[C@@H](C(=O)O)NC1=O` (single isomer, unassigned) [^68Ga-M2, metal not drawn], the logP (in general, a log measure of how a compound divides between an organic and an aqueous phase) in series [2] was -2.09 ± 0.02. The radiochemical purity in series [3] (DTPA (500-fold excess)) was > 95%. In series [3] (PBS), the radiochemical purity was > 95%. Besides, in “in vitro”, the share remaining – broadly, what is left of the initial amount, in per cent – at 3 h was > 95%. In series [4] (setting [7]), this compound registered an Emission maximum of 830 nm and an Excitation wavelength of 785 nm. For the same compound, the Quantum yield in series [4] (785/830 nm, relative to ICG (Φ=0.016)) is recorded as 0.031. Further, the Extinction coefficient in series [4] (absorbance at 785 nm, serial dilutions, mean ± SD (n=4)) is listed as 108,069±7,918 M^−1cm^−1. The absorbance maximum in series [4] (optical spectrum) is 785 nm. Also, on MMP-9 [5], the “localization of agent by NIR fluorescence” value is recorded as “observed in the tissue region with BMP-2 producing cells”. Moreover, the clearance from circulation entry in the series with MMP-9 [6] is “rapidly cleared from circulation via the kidneys”.
